Legend:
[1] = target: bacteriophage Sf6 gp26-like tail needle (bacteriophage Sf6); test: SDS-PAGE
[2] = target: bacteriophage Sf6 gp26-like tail needle (bacteriophage Sf6); test: AUC
[3] = target: phage HS1 gp26-like tail needle (prophage HS1 of E. coli strain HS); test: SDS-PAGE
[4] = target: phage HS1 gp26-like tail needle (prophage HS1 of E. coli strain HS); test: AUC
[5] = target: bacteriophage HK620 gp26-like tail needle (bacteriophage HK620); test: SDS-PAGE
[6] = target: bacteriophage HK620 gp26-like tail needle (bacteriophage HK620); test: AUC
AUC = target: the molecule itself; test: AUC

Question: With “bacteriophage Sf6 gp26-like tail needle (natural protein)” as the molecule, how does the stoichiometry N [1] read?
Answer: 3

Question: What about the stoichiometry N [2] of the same molecule?
Answer: 3

Question: “phage HS1 gp26-like tail needle (natural protein)” was tested. Which stoichiometry N [3] did it give?
Answer: 3

Question: And the stoichiometry N [4]?
Answer: 3

Question: Which stoichiometry N [5] does the source give for “bacteriophage HK620 gp26-like tail needle (natural protein)” here?
Answer: 3

Question: What about the stoichiometry N [6] of the same molecule?
Answer: 3

B1: bacteriophage P22 tail needle gp26 (natural protein, UniProt P35837 1-233, looked up)
chain: MADPSLNNPVVIQATRLDASILPRNVFSKSYLLYVIAQGTDVGAIAGKANEAGQGAYDAQVKNDEQDVELADHEARIKQLRIDVDDHESRITANTKAITALNVRVTTAEGEIASLQTNVSALDGRVTTAENNISALQADYVSKTATTSQSLASPLNVTTSYSVGGKKVLGARQTGWTAATGTANKGVFDADLTFAVSDTYTQSEIQAIANALITERRRTKALEDALRAHGLID
Question: For B1, which “stoichiometry N” value (AUC) is on record?
Answer: 3

Source: article PMC2713385 (Journal of molecular biology, 2009)
